Molecular target: the molecule itself
Assay: native MS; nano-ESI, PKM2 in 200 mM ammonium acetate pH 6.8, with added saturating FBP (10 µM FBP to 10 µM PKM2; 10:1 FBP:PKM2 for the AlloHub mutants); also with 300 µM Phe added before or after FBP

| Protein | stoichiometry N | binding result |
| --- | --- | --- |
| PKM2(C358A) (enzyme, pyruvate kinase M2 (PKM2), Homo sapiens, Uniprot ID P14618-1; pET28a-His-PKM2(C358A), made from pET28a-His-PKM2(WT); also called AlloHubM C358A; source: E. coli BL21(DE3)pLysS, purified (HisTrap IMAC, thrombin cleavage, Superdex 200 SEC); not shown: His6, N-terminal, cleaved) not shown | 4 |  |
| PKM2(K305Q) (enzyme, pyruvate kinase M2 (PKM2), Homo sapiens, Uniprot ID P14618-1; pET28a-His-PKM2(K305Q), made from pET28a-His-PKM2(WT); also called AlloHubM K305Q; source: E. coli BL21(DE3)pLysS, purified (HisTrap IMAC, thrombin cleavage, Superdex 200 SEC); not shown: His6, N-terminal, cleaved) not shown | 4 |  |
| PKM2(F244V) (enzyme, pyruvate kinase M2 (PKM2), Homo sapiens, Uniprot ID P14618-1; pET28a-His-PKM2(F244V), made from pET28a-His-PKM2(WT); also called AlloHubM F244V; source: E. coli BL21(DE3)pLysS, purified (HisTrap IMAC, thrombin cleavage, Superdex 200 SEC); not shown: His6, N-terminal, cleaved) not shown |  | binds |
| PKM2(I124G) (enzyme, pyruvate kinase M2 (PKM2), Homo sapiens, Uniprot ID P14618-1; pET28a-His-PKM2(I124G), made from pET28a-His-PKM2(WT); also called AlloHubM I124G; source: E. coli BL21(DE3)pLysS, purified (HisTrap IMAC, thrombin cleavage, Superdex 200 SEC); not shown: His6, N-terminal, cleaved) not shown |  | binds |
| PKM2(A327S) (enzyme, pyruvate kinase M2 (PKM2), Homo sapiens, Uniprot ID P14618-1; pET28a-His-PKM2(A327S), made from pET28a-His-PKM2(WT); also called AlloHubM A327S; source: E. coli BL21(DE3)pLysS, purified (HisTrap IMAC, thrombin cleavage, Superdex 200 SEC); not shown: His6, N-terminal, cleaved) not shown | 4 |  |

Reference: publication PMC6636998, “Functional cross-talk between allosteric effects of activating and inhibiting ligands underlies PKM2 regulation” (eLife, 2019)
